This passage reports protein stability index results from the supplement of paper PMC10567573.

To fix the notation:
B1: SLC6A17 (parent)
chain: HMFTPKLDKMLDPQVWREAATQVF
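Further: lentivirally expressed fusions sorted by FACS into six bins by GFP to DsRed ratio, PSI derived from sequencing read proportions per bin multiplied by bin number.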

The variants in the data set derive from B1. As to the kind of experiment: protein stability index of a GFP-peptide fusion (GPS, HEK-293T) (PSI 1-6); higher = more stable. To be noted: c terminus: a fixed tail appended.
Consider HMKTPKLDKMLDPQVWREAATQVF, for which the protein stability index was 1.98.
For HMGTPKLDKMLDPQVWREAATQVF, the protein stability index amounted to 1.91.
Regarding HMRTPKLDKMLDPQVWREAATQVF, the protein stability index stood at 2.4.
The same measure for HMHTPKLDKMLDPQVWREAATQVF: 2.17; for HMVTPKLDKMLDPQVWREAATQVF: 2.7; for HMITPKLDKMLDPQVWREAATQVF: 2.45.
For the variant HMATPKLDKMLDPQVWREAATQVF, the protein stability index was 2.2.
Consider HMPTPKLDKMLDPQVWREAATQVF, for which the protein stability index was found to be 2.65.
Turning to HMNTPKLDKMLDPQVWREAATQVF, the protein stability index is 2.86.
Regarding HMMTPKLDKMLDPQVWREAATQVF, the protein stability index came out at 1.81.
As for HMCTPKLDKMLDPQVWREAATQVF, the protein stability index came to 2.25.
Consider HMTTPKLDKMLDPQVWREAATQVF, for which the protein stability index was determined as 2.01.
Take HMYTPKLDKMLDPQVWREAATQVF: the protein stability index is 2.6.
Take HMLTPKLDKMLDPQVWREAATQVF: the protein stability index came to 1.99.
For HMWTPKLDKMLDPQVWREAATQVF, the protein stability index amounted to 2.07.
Regarding HMQTPKLDKMLDPQVWREAATQVF, the protein stability index turned out to be 2.17.
Consider HMETPKLDKMLDPQVWREAATQVF, for which the protein stability index turned out to be 3.49.
Regarding HMSTPKLDKMLDPQVWREAATQVF, the protein stability index amounted to 2.27.
Regarding HMDTPKLDKMLDPQVWREAATQVF, the protein stability index is 2.69.
For GMFTPKLDKMLDPQVWREAATQVF the value was 1.79.
In the case of EMFTPKLDKMLDPQVWREAATQVF, the protein stability index is 2.17.
Turning to RMFTPKLDKMLDPQVWREAATQVF, the protein stability index was determined as 1.98.
The same measure for DMFTPKLDKMLDPQVWREAATQVF: 2.3.
As for PMFTPKLDKMLDPQVWREAATQVF, the protein stability index is 2.72.
Regarding MMFTPKLDKMLDPQVWREAATQVF, the protein stability index was 2.74.
For SMFTPKLDKMLDPQVWREAATQVF the value was 2.06.
As to QMFTPKLDKMLDPQVWREAATQVF, the protein stability index stood at 2.29.
FMFTPKLDKMLDPQVWREAATQVF: the protein stability index worked out at 2.13.
The same measure for AMFTPKLDKMLDPQVWREAATQVF: 2.73; for YMFTPKLDKMLDPQVWREAATQVF: 1.79.
On to VMFTPKLDKMLDPQVWREAATQVF, for which the protein stability index amounted to 2.51.
As to KMFTPKLDKMLDPQVWREAATQVF, the protein stability index came to 1.5.
Regarding LMFTPKLDKMLDPQVWREAATQVF, the protein stability index worked out at 1.88.
In the case of CMFTPKLDKMLDPQVWREAATQVF, the protein stability index was 1.56.
For TMFTPKLDKMLDPQVWREAATQVF the value was 1.46.
NMFTPKLDKMLDPQVWREAATQVF: the protein stability index is 1.56.
For HSFTPKLDKMLDPQVWREAATQVF the value was 2.03; for HYFTPKLDKMLDPQVWREAATQVF, 2.84; for HLFTPKLDKMLDPQVWREAATQVF, 1.71.
On to HCFTPKLDKMLDPQVWREAATQVF, for which the protein stability index is 2.01.
For HAFTPKLDKMLDPQVWREAATQVF the value was 1.9; for HDFTPKLDKMLDPQVWREAATQVF, 2.34.
Take HHFTPKLDKMLDPQVWREAATQVF: the protein stability index is 2.49.
As for HKFTPKLDKMLDPQVWREAATQVF, the protein stability index amounted to 2.13.
The same measure for HFFTPKLDKMLDPQVWREAATQVF: 1.65; for HGFTPKLDKMLDPQVWREAATQVF: 1.92; for HWFTPKLDKMLDPQVWREAATQVF: 1.81.
Regarding HIFTPKLDKMLDPQVWREAATQVF, the protein stability index came out at 2.53.
As to HPFTPKLDKMLDPQVWREAATQVF, the protein stability index was determined as 2.36.
As for HTFTPKLDKMLDPQVWREAATQVF, the protein stability index was found to be 2.14.
Consider HRFTPKLDKMLDPQVWREAATQVF, for which the protein stability index is 2.56.
Take HNFTPKLDKMLDPQVWREAATQVF: the protein stability index came to 2.43.
With HQFTPKLDKMLDPQVWREAATQVF, the protein stability index amounted to 2.52.
Consider HVFTPKLDKMLDPQVWREAATQVF, for which the protein stability index turned out to be 1.62.
The same measure for HEFTPKLDKMLDPQVWREAATQVF: 2.49; for HMFTQKLDKMLDPQVWREAATQVF: 2.49.
For HMFTDKLDKMLDPQVWREAATQVF, the protein stability index was found to be 2.61.
In the case of HMFTRKLDKMLDPQVWREAATQVF, the protein stability index is 1.78.
For HMFTLKLDKMLDPQVWREAATQVF, the protein stability index was found to be 1.55.
For HMFTIKLDKMLDPQVWREAATQVF the value was 3.2.
As to HMFTMKLDKMLDPQVWREAATQVF, the protein stability index stood at 1.03.
On to HMFTAKLDKMLDPQVWREAATQVF, for which the protein stability index came to 2.46.
Consider HMFTSKLDKMLDPQVWREAATQVF, for which the protein stability index is 2.09.
The same measure for HMFTEKLDKMLDPQVWREAATQVF: 2.4; for HMFTGKLDKMLDPQVWREAATQVF: 1.61; for HMFTCKLDKMLDPQVWREAATQVF: 1.53.
For the variant HMFTHKLDKMLDPQVWREAATQVF, the protein stability index turned out to be 1.85.
Consider HMFTVKLDKMLDPQVWREAATQVF, for which the protein stability index is 1.69.
The same measure for HMFTYKLDKMLDPQVWREAATQVF: 2.08; for HMFTKKLDKMLDPQVWREAATQVF: 1.69.
Turning to HMFTTKLDKMLDPQVWREAATQVF, the protein stability index is 1.53.
The same measure for HMFTWKLDKMLDPQVWREAATQVF: 1.3; for HMFCPKLDKMLDPQVWREAATQVF: 2.49.
Turning to HMFNPKLDKMLDPQVWREAATQVF, the protein stability index was 1.39.
For the variant HMFMPKLDKMLDPQVWREAATQVF, the protein stability index came to 2.97.
The same measure for HMFWPKLDKMLDPQVWREAATQVF: 2.21; for HMFFPKLDKMLDPQVWREAATQVF: 1.9.
HMFGPKLDKMLDPQVWREAATQVF: the protein stability index came out at 2.1.
Regarding HMFKPKLDKMLDPQVWREAATQVF, the protein stability index is 1.67.
Turning to HMFEPKLDKMLDPQVWREAATQVF, the protein stability index is 2.31.
Take HMFHPKLDKMLDPQVWREAATQVF: the protein stability index came out at 1.79.
Take HMFIPKLDKMLDPQVWREAATQVF: the protein stability index is 1.45.
Take HMFRPKLDKMLDPQVWREAATQVF: the protein stability index was determined as 2.39.
In the case of HMFPPKLDKMLDPQVWREAATQVF, the protein stability index worked out at 2.07.
On to HMFDPKLDKMLDPQVWREAATQVF, for which the protein stability index was 1.76.
Consider HMFYPKLDKMLDPQVWREAATQVF, for which the protein stability index was 2.11.
Consider HMFLPKLDKMLDPQVWREAATQVF, for which the protein stability index stood at 2.69.
For HMFAPKLDKMLDPQVWREAATQVF the value was 2.4; for HMFSPKLDKMLDPQVWREAATQVF, 2.67.
In the case of HMFQPKLDKMLDPQVWREAATQVF, the protein stability index is 1.8.
For HMFTPALDKMLDPQVWREAATQVF, the protein stability index came out at 1.99.
Regarding HMFTPCLDKMLDPQVWREAATQVF, the protein stability index stood at 1.98.
On to HMFTPDLDKMLDPQVWREAATQVF, for which the protein stability index turned out to be 2.67.
With HMFTPELDKMLDPQVWREAATQVF, the protein stability index came to 1.74.
